Experimental data taken from the DeepSol protein solubility set.

test: soluble on expression in E. coli; label from the status in PepcDB or PDB records

Row | Sequence | soluble on expression in E. coli
1 | MSDSNTPNPPGTEERLVQQLDSYFSNTATGNETGEASAPAAPNNAAGTSDQDRPPNLAPILMLSYLNHCMSKKSFTPEDIQKSVWEQKSKKLSQEDWEFCKYFISSKELLLQLAPGKKRKTQAQALIELILKKFPGVGVEMLTRLLDPSESAYIIYDVIEQVKCEPKCDAESIKQEEFMYSQKINKKIRENNKCFKFSMVFERLRNGSSLPEEKPFAPLEFRTITSEYSNIYTQMVKATTYVELMDVMSKLKTTRLSVNELYFSAKHMQNPEKDTQDEFWEAESEKVLELQPLMIDPQLESTSRQRLKILQELALQQKMLKEVDEIISMSFELVTKSLSTGNPHNPADVQSLMINSNAPSIPDQRKNDWMEYYNLNPLGQYPISSHFPRSDRIGPKLPAVIQKISIRYCLSKEIEVIETIDEWKCREFCTYDHNLKDFRRHKCEICEVEVQECDLSLRQTKWCSHIEDQVLLMYNRVNGRLEQYVFSFETKGFKEVYCSCIEVTYRGKNGPEEPVLLTNGSEHVVIKEADPGVVKLQLVGENHVEIPAVPVQQLSAEEIEMQDAYDSSKSESESEHESEQISYNKTFISTLPMFKVRHCPLSRKDVLYVRSNNLGQYEKYDYHPTYHRFEPFKCSKCKDATSEDHLVPKYAEHCPETNEFVIHTENLFTERMEQYIYDSMTQGFRQVYYPQFLYDPSKDHTSNVFVTVNYLSTVITRDKDGRFKKEKFCDNLKKFVAIPEVEVNTFTVQELEKKKNKRRVDSDSDSFEHIEIPDMVSASP | not soluble
2 | MSDSPDSPPDAEPSIAARIAAVLPSLTPIHRRMGEYVLANPFRAATMRIDELANAVDASIATANRFARALGFDGYPALRAALVRGFEATLAPVERLRSAQEHEAGARGGELIDASFEQAL | not soluble
3 | MSDSSQLHKVAQRANRMLNVLTEQVQLQKDELHANEFYQVYAKAALAKLPLLTRANVDYAVSEMEEKGYVFDKRPAGSSMKYAMSIQNIIDIYEHRGVPKYRDRYSEAYVIFISNLKGGVSKTVSTVSLAHAMRAHPHLLMEDLRILVIDLDPQSSATMFLSHKHSIGIVNATSAQAMLQNVSREELLEEFIVPSVVPGVDVMPASIDDAFIASDWRELCNEHLPGQNIHAVLKENVIDKLKSDYDFILVDSGPHLDAFLKNALASANILFTPLPPATVDFHSSLKYVARLPELVKLISDEGCECQLATNIGFMSKLSNKADHKYCHSLAKEVFGGDMLDVFLPRLDGFERCGESFDTVISANPATYVGSADALKNARIAAEDFAKAVFDRIEFIRSN | soluble
4 | MSDVIEQYFVKNEPYYRPVADEVKLYEAAYSVRMPMMLKGPTGCGKTRFVEYMAWKLGKPLITVACNEDMTASDLVGRFLLDAQGTRWQDGPLTTAARYGAICYLDEVVEARQDTTVVIHPLTDNRRVLPLEKKGELVGAHPDFQLVISYNPGYQSLMKDLKQSTKQRFGALDFNYPQHDIETEIVSHETGIDSAIADKLVSIAERARNLKGHGLDEGISTRMLIYAGNLIAKGVDVHAACRMALVRPITDDPDMRDALDAAVTTFFLEHHHHHH | soluble
5 | MSDWTYSEGALDEAHWPQHYPACGGQRQSPINLQRTKVRYNPSLKGLNMTGYETQAGEFPMVNNGHTVQISLPSTMRMTVADGTVYIAQQMHFHWGGASSEISGSEHTVDGIRHVIEIHIVHYNSKYKSYDIAQDAPDGLAVLAAFVEVKNYPENTYYSNFISHLANIKYPGQRTTLTGLDVQDMLPRNLQHYYTYHGSLTTPPCTENVHWFVLADFVKLSRTQVWKLENSLLDHRNKTIHNDYRRTQPLNHRVVESNFPNQEYTLGSEFQAENLYFQ | soluble
6 | MSDYAESYVSDCEVDPEELKNQSLFDKPRGVPRWLGKPHNSVKERLHNSVKDRTFIQKTVSSSEPLSRNAMDRIEASLTDNLNLDVVYSLNKKNRWQDAKTTFLLAGAPENVNAEVVEKNGLAQFGFIYPEKSTFAVHSRVLNKENKQGEFEIRSAITSSARGQDYSNFLPNTREFSKKANAKVMTLRSEEVDEDSKRQPTVSYNIYKTHRSQDVVGKEMFKAKVVSKSRRHRQNKKVDMENYDDLDEEFEDDEDEVVDSHRPTGVFDLAAFKVRTQSKQAHPKNRKDSELSYDMVDYDELETGSEYSQQFNVQEYLNQEGYTFIQADVTFVKLTEPFEDQINQLRLEGDLRVKDLQKNQYLIDISKRCQPNGTTQDGETTAVIVLTHLKHKTYNMIFNSTIGADPIRRNGENLRKIVSSAPTVLEVITKISGDVAEDKQLISRIKTSEKFYGRPSTSVDWNDLSLQRATCPNQYDNATWANSEELSVVGGKLEWDDLVAMVKKENNLVTCYSSDDFCGFCNRKKKSFELFLIKSSSETKIKCTECLRNEFYREFIARRLPIDLQTETADEMEYLPIFIPLTLLNLYIRTVAETIYKDLGATGDFEKCPSCKSTIFFEEPGNENKTQNRSCPCGYSWCRDCKGVPHWPMNCENYAEWEKKWHLRYAMMNAQGTGTVTLLQFTCHCKTVYYCLLPTKRVNCPGCRESVNLETMNTMYRQFYYSYPPRYRKWEKQYHEENKDTDRHPYQPLAKVCWEIDKIPAIKASVIETCGAARDVRFDLKFRNRVIKQEQVLIKKSILTSEVLENILGTIPYLVENVTAWMHMSNHQDKNLKSILESMIADRKDLVYYLESENEIEIEKCVKILRAKIDSVVSIVEKNMKNC | not soluble
7 | MSEAIGLIETVGLVAAIEAADAAVKAANVKLIGYELARGSGLTTVKIKGDVGAVKAAVEAGKAAALRVGKVYAVHIIPRPDKQVGFIVGEEKNLTLLMPVIEKEEKEKNDSEPKIKVTEGETIEKREIEQKFEKEDKSEAKEETGEVEEEDDKEGMAYTCNLCKDPGCPRKKGEPRTLCIHYNELKMR | not soluble
8 | MSEELLQKFLTSIEQEDGIAEIGKKKKNKSAARRDNVKTILHAASKGQVQLSAEESYIVQKPSTSKGSDYIDDRLASQGFSLIDQARSFKPKDLKKRNLKYMKFQEGRRIDKKKGRILVQAHMQTKQDLKSLRKEKKAIIGVKEPRRLLPGQKKKQKDKSVFSDADFAQVAHVAKRINSMADHSFL | not soluble
9 | MSEEQKTISISELESMNIKQLYEIAKSLGIPRYTSMRKRDLIFAILKAQTESTGYFFGEGVLEIHPEGFGFLRRIEDNLLPSNDDIYISPSQIRKFNLNTGDIISGVIRKPKEGEKYFAMIKIEAINYRPVEAVNDRVNFDNLTPDYPRERFILETDPKIYSTRLIDLFAPIGKGQRGMIVAPPKAGKTTILKEIANGIAENHPDTIRIILLIDERPEEVTDIRESTNAIVIAAPFDMPPDKQVKVAELTLEMAKRLVEFNYDVVILLDSLTRLARVYNIVVPPSGKLLTGGVDPAALYKPKRFFGAARNTREGGSLTIIATALVETGSKMDEVIFEEFKGTGNMELVLSRQLANKRIFPAINLLLSGTRREELLLDEETLKKVWLLRRMLSAMTEEEGLTLILNKLSETSSNEEFLKLIDKEKARY | soluble
10 | MSEIALEAWGEHEALLLKPPRSPLSIPPPKPRTAVLFPRREGFYTELGGYLPEVRLRFETYGTLSRRRDNAVLVFHALTGSAHLAGTYDEETFRSLSPLEQAFGREGWWDSLVGPGRILDPALYYVVSANHLGSCYGSTGPLSLDPRTGRPYGRDFPPLTIRDLARAQARLLDHLGVEKAIVIGGSLGGMVALEFALMYPERVKKLVVLAAPARHGPWARAFNHLSRQAILQDPEYQKGNPAPKGMALARGIAMMSYRAPEGFEARWGAEPELGETYLDYQGEKFLRRFHAESYLVLSRAMDTHDVGRGRGGVEEALKRLRAIPSLFVGIDTDLLYPAWEVRQAAKAAGARYREIKSPHGHDAFLIETDQVEEILDAFLP | soluble
11 | MSEIKRLEINYKTDELFENFRAFGNKDLYMVNELNGQMIDASSDSPFYGIFVGDQLGARMALLKKGDVEEIYFPDFEDYILLWKLEVLPKYQNRGYASELIDFAKSFNMPIKAIGRNDSKDFFLHHGFTDVEAKNIEGHDVLLWKPIRLEHHHHHH | not soluble
12 | MSEKETPSPVLDVKKEKNEETGIDEEKSSEDDCSKRSKVKSNPSKFSVNSILSPLESLVRVQQQLLKMAASKSGTPGTNAGVPGAFPYGPGRLPGNYFAGPFPGYSGAQPNWYNGNDPRFAAAAALLPCSIDPVRSAINHQFSMSSMSQRRKRRVLFSQAQVYELERRFKQAKYLTAPEREQLANSIRLTPTQVKIWFQNHRYKCKRQEKEKAMSGLGHSEDGSSPPPDNDDDDDKYSIEMDDKDDEEEEESEKPVLKPSGVFGLPYPPNAAAAAAAAAAAFNFPFAAQGPNPAYYMRW | not soluble
13 | MSEKSIVTKILRYLKTVPGCFCWKEHGGMYGTAGLPDIIACVNGRFIAFEVKTPSGKTTKLQEATIKKILNAGGVAAVVHSVDEVKVILEKHDLLQRTKI | soluble
14 | MSEKTMGPRQSRPGILTPAQERVAQAIARLGPEISLTDISRMVGGHPNASRQHIKTLENSGYISATQKRGAAGRPAQLYSITPEGLRALAGNATLIAHTSFVRSLSHYIANQPHPEERALALGSQMVRDEGPLPGATKVDKVVNLLEKYGFAPTQAGTEIQLLTCPVLDSAVRHPEVVCTMHRGILNEITGNNTTFILEPFARPGMCVIRTVSPTANPTQT | not soluble
15 | MSELLQYSRIKYECTCGKFRTLPDLVFCRYCFKIKCDDCSLGEVDNIFCPRCLEPSSVPEARLKKHKCASCNDCPKCANVLSARTENDNVYLVCQYCRWSSREANQEDQENTKSWPTKENPLVNQLGEVTAYMKRLELIENAPKDLKKGKSGKAWTAFHLKDKFGFQQMVDKRKKALAPEMNPVDAHAPTEAPTLEDEIKERTDDLRTLDQIIMQPLINISEPLLPVQVPLAGRVQVRCDECERTLIKRDFGVTTFKFKISSFARQFVPDIRMSRPVDDLKVGETSHVFLSITNLSSSAMDLTIAPQSGNGFIQCSSDPIQLLLPSSRASDTAAPGVHADQSDVIVFRQHNRVGLRLDVIPTEMDLSSPCLNLLITYCQDGSFRLSSASDKILKPEETCPDPILSANLKVDLR | not soluble
16 | MSELTSNRIRTTAAKLGLPHLAEALNQYVQRADEAKMGYLDFLDLVLAEELAVRDDRRFRNGLRLSKLPHHKTLEDYDFSFQPDLDPRKVKDLATLSFIEDKANVALLGPPGVGKTHIAVALAVAACRAGYSIYFTSLDDMVRHLKAAEDQGRLISKLTSYLRPAVLVVDEVGYQPLERAEANLVFQVISKRYEKGSIILTSNKTFGEWGQVFGDEVLATAILDRLLHHCEVVSINGNSYRLKNRLQAIERDTDVALEHHHHHH | soluble
17 | MSEPLLRGLAAGDPPSATGPVTGSADKVADVLIVGGGLVGGTLACALAEKGVSVVVIDGEDPEALLAAGYDGRCSAIALACQRLLDTIGLWDLLGGESQPILDIRVVDGGSPLFLHYAQAEAQGPMGYMVENRLLRQAILTRLGRLPAATLLAPARMTALRRDLDGVSATLSDGQTVRARLVVGADGRRSQVRESAGIGIRTLGYGQTAIVLTVEHERSHRGCAVEHFLPAGPFAILPMPGNRSSLVWTERSDLVPGLLALPAEHFQAELERRFGDHLGWVRPVGPRFSYRLTLQAANRYVDHRLALVGDAAHGMHPVAGQGMNYGLRDVAVLAERLVAAQRLGLDPGAPALLAEYEALRRPDNLLMLAITDALVRLFSNDIAPVALARRLGIGAVERMGPLKRLFMRHAMGTLKLGPEPPRLMRGVPLLEHHHHHH | soluble
